Test results published in patent publication US11213565B2, “Protein P8 derived from lactic acid bacteria and its use as anti-cancer agent” (CELL BIOTECH CO., LTD., priority 2016, dated 2022).

What was measured:
HT-29 cell line = assay: Cell survival rate (WST-8) in HT-29; type: cell-based; settings: 0.39 μl/ml to 100 μl/ml, 24 hours
Protocol: (§1) Each of the colorectal cancer cell line DLD-1 and the HT-29 cell line was cultured in a 96-well plate at a density of 1×10^4 cells/well, and the P8 protein of Example 1 was added thereto at a concentration of 0.39 μl/ml to 100 μl/ml. As a negative control, 0.1% PBS buffer used in protein purification was used. The cells were incubated for 24 hours, and then each well was treated with 100 of a cell survival rate measurement kit (Dojindo Cell count kit WST-8) and incubated for 2 hours. The absorbance of each well at 450 nm was measured using a microplate reader (Amersham, Biorad, USA, Japan), and based on the measured values, cell survival rates were calculated.

[1] = test system: NIH3T3 cells (mouse embryonic fibroblast cells); assay: Cytotoxicity assay (WST-8) in NIH3T3; type: cell-based; settings: 0.39 μg/ml to 100 μg/ml, 24 hours
Protocol: In order to examine whether the P8 protein of Example 1 is cytotoxic, a cytotoxicity assay was performed using the P8 protein, highly expressed in NIH3T3 cells (mouse embryonic fibroblast cells), and BSA (bovine serum albumin) as a […] control.
First, NIH3T3 cells were cultured in a 96-well plate at a density of 1×10^4 cells/well, and each of BSA and the highly expressed and purified P8 protein was added thereto at a concentration of 0.39 μg/ml to 100 μg/ml. Each well was incubated for 24 hours, and then treated with 100 of a cell survival rate measurement kit (Dojindo Cell count kit WST-8), followed by incubation for 2 hours. The absorbance of each well at 450 nm was measured using a microplate reader (Amersham, Biorad, USA, Japan), and based on the measured values, cell survival rates were calculated.

[2] = test system: Colorectal cancer DLD-1 cells; assay: LIVE/DEAD viability/cytotoxicity staining of DLD-1; type: cell-based, human; settings: 1 μg/ml or 10 μg/ml, 24 to 48 hours
Protocol: (§2) Colorectal cancer DLD-1 cells were cultured in a 6-well plate at a density of 1.5×10^6 cells/well, and a P8 protein of the present invention was added thereto at a concentration of 1 μg/ml or 10 μg/ml. Next, the cells were incubated for 24 to 48 hours, and then washed twice with phosphate buffered saline and treated with 1 ml of a LIVE/DEAD viability/cytotoxicity staining kit, followed by incubation for 20 to 40 minutes. By the staining, living cells were stained green, and dead cells were stained red. The cells were observed under a fluorescent microscope, and the degree of inhibition of viability thereof was analyzed.
as §2, with “and the” for “and a”, “of Example 1” for “of the present invention”, “μg/ml. Each well was” for “μg/ml. Next, the cells were”, “staining, live” for “staining, living”

[3] = test system: human colorectal cancer cell line (DLD-1) xenograft; assay: Colorectal cancer xenograft model, tumor volume; type: in vivo, nude mice
Protocol: The human colorectal cancer cell line (DLD-1) was transplanted subcutaneously into nude mice, thereby constructing xenograft models. Using the xenograft models, the anticancer activity of the P8 protein of Example 1 was evaluated.
First, for construction of colorectal cancer xenograft models, DLD-1 cells were transplanted subcutaneously into nude mice at a concentration of 1×10^7 cells/100 μl. 10 to 15 Days after the transplantation, the transplanted state of the tumor cells was checked, and mice showing a stable transplanted state were continuously observed. Before tumor's central necrosis occurred, mice showing rapid tumor growth due to supply of sufficient blood were selected, and tumor tissues were collected therefrom. Of the collected tumor tissue, the outer portion in which rapid cell division mainly occurred was cut into a predetermined size (3×3×3 mm), thereby constructing a tumor fragment. Then, the tumor fragment was placed on the tip of a puncture needle (Trocar), and the anterior side of the left rear leg of each animal was incised about 4 mm. The prepared puncture needle was inserted through the incision such that the tip reached the interbody side on the rear side of the left front leg. […] The position of the tumor fragment was determined by touching the skin with hand. […]
During drug administration, the tumor size was measured using Vernier calipers once every two days. […]

[4] = test system: colorectal cancer cell line DLD-1; assay: Cell survival rate (WST-8) in DLD-1; type: cell-based, human; settings: 0.39 μl/ml to 100 μl/ml, 24 hours
Protocol: Colorectal cancer DLD-1 cells were cultured in a 96-well plate at a density of 1×10^4 cells/well, and each of active sites 1 to 3 (SEQ ID NOs: 8 to 10) of Example 1-3 was added thereto at a concentration of 10 μg/ml. As a negative control, 0.1% PBS buffer used in protein purification was used. The cells were incubated for 24 hours, and then each well was treated with 100 of a cell survival rate measurement kit (Dojindo Cell count kit WST-8) and incubated for 2 hours. The absorbance of each well at 450 nm was measured using a microplate reader (Amersham, Biorad, USA, Japan), and based on the measured values, cell survival rates were calculated.
as §1

[5] = test system: Colorectal cancer DLD-1 cells; assay: Scratch assay, migration of colorectal cancer cells; type: cell-based, human; settings: 1 μg/ml daily
Protocol: Colorectal cancer DLD-1 cells were treated daily with 1 μg/ml of the P8 protein of Example 1 for 1, 3 or 7 days, and then dispensed into each well of a 6-well plate.
The dispensed DLD-1 cells were cultured overnight, and then the plate having the cells cultured thereon was scratched with a 200 μl tip. To remove suspended material resulting from the scratch, the plate was washed twice with PBS, and then additionally incubated for 24 hours.

B1: P8 protein: 8 KDa protein fragment extracted from Lactobacillus rhamnosus, amino acid sequence SEQ ID NO: 2 (protein, listed as Lactobacillus rhamnosus)
chain: MATVDPEKTLFLDEPMNKVFDWSNSEAPVRDALWDYYMEKNSRDTIKTEEEMKPVLDMSDDEVKALAEKVLKK
In the case of B1, the “cell growth inhibitory effect” value (HT-29 cell line) is reported as “about 20%”, the “cytotoxicity (cell survival rate compared with BSA)” value [1] is reported as “not cytotoxic” and the “dependence of viability on concentration or time of treatment” value [2] is reported as “decreased as the concentration or time of treatment with the P8 protein increased”. For the same molecule, the “viability of the cells compared to negative control” value ([2]; fluorescent microscope) was “decreased”, the “cancer growth inhibitory effects compared to conventional anticancer agents” value ([3]; 10 mg/Kg or higher, intraperitoneally twice a week for 4 weeks, vs 5-fluorouracil 10 mg/Kg, oxaliplatin 4 mg/Kg) was “superior” and the “cancer growth compared to negative control group” value ([3]; 1, 5 and 10 mg/Kg intraperitoneally twice a week for 4 weeks) was “significantly inhibited”. The “cell growth inhibitory effect” value [4] was “about 20%”, the “decrease of migration rate of the cells compared to untreated control” value (shortened to “decrease of migration rate of the cells”) ([5]; 1-day treatment) was 15.7% and the “decrease of migration rate of the cells” value ([5]; 3-day treatment) was 45.9%. For the same molecule, the “decrease of migration rate of the cells” value ([5]; 7-day treatment) was 58.3%.
